Tests used:
Conditions in all cases: remark: other sources report otherwise
[1] = target: SARS-CoV-2 Spike trimer (Table A) (SARS-CoV-2), P0DTC2; assay: ELISA, purified IgG
[2] = target: T1, SARS-CoV-2 prefusion-stabilized trimeric spike ectodomain (S2Pecto) (SARS-CoV-2), P0DTC2; assay: ELISA on coated antigen
[3] = target: T1, SARS-CoV-2 prefusion-stabilized …; assay: hACE2 blocking ELISA on coated S2Pecto; competitor hACE2

B1: COV2-2165 (antibody, V domains shown)
VH: EVQLVESGGGLVQPGGSLRLSCAASGLTVRSNYMTWVRQTPGKGLEWVSVIYSGGSTFYADSVKGRFTISRDNSKNTVYLQMNSLRAEDTAVYYCARDLVTYGLDVWGQGTTVTVSS
VL: DIQLTQSPSFLSASVGDRVTITCRASQGISNYLAWYQQKPGTAPNLLIYAASTLQSGVPSRFSGSGSGTEFTLTISSLQPEDFATYYCQLLNSHPLTFGQGTRLEIK
Binder B1 has an ELISA OD 450 nm [1] of 4.2 OD 450 nm, an EC50 [2] of 0.0014 µg/mL and an IC50 [3] of 0.062 µg/mL.

B2: COV2-2952 (antibody, V domains shown)
VH: EVQLVESGGGLVQPGGSLRLSCAASGLTVRSNYMTWVRQTPGKGLEWVSVIYSGGSTFYADSVKGRFTISRDNSKNTVYLQMNSLRAEDTAVYYCARDLVTYGLDVWGQGTTVTVSS
VL: DIQLTQSPSFLSASVGDRVTITCRASQGISNYLAWYQQKPGTAPNLLIYAASTLQSGVPSRFSGSGSGTEFTLTISSLQPEDFATYYCQLLNSHPLTFGQGTRLEIK
B2 was tested, and the ELISA OD 450 nm [1] was 3.54 OD 450 nm.

B3: COV2-2391 (antibody, V domains shown)
VH: QVQLVQSGAEVKKPGASVKVSCKASGYTFGSFDINWVRQATGQGLEWMGRMNSNSGNTAYAQKFQGRVTMTRDTSTNTAYMELSSLRSEDTAMYYCARMRSGWPTHGRPDDFWGRGTLVTVSS
VL: QSVLTQAPSASGTPGQRVTISCSGSNSNIGSYTINWYQQLPGTAPKLLIYGNDQRTSGVPDRFSGSKFGTSASLAISGLQSEDENNYYCAVWDDSLNGLVFGGGTKLTVL
In the case of B3, the ELISA OD 450 nm [1] is reported as 3.57 OD 450 nm.

B4: COV2-2096 (antibody, V domains shown)
VH: QVQLVQSGAEVKKPGASVKVSCKASGYTFGSFDINWVRQATGQGLEWMGRMNSNSGNTAYAQKFQGRVTMTRDTSTNTAYMELSSLRSEDTAMYYCARMRSGWPTHGRPDDFWGRGTLVTVSS
VL: QSVLTQAPSASGTPGQRVTISCSGSNSNIGSYTINWYQQLPGTAPKLLIYGNDQRTSGVPDRFSGSKFGTSASLAISGLQSEDENNYYCAVWDDSLNGLVFGGGTKLTVL
With B4 the ELISA OD 450 nm [1] was 4.3 OD 450 nm, the EC50 [2] was 0.001 µg/mL and the IC50 [3] was 0.067 µg/mL.
